Data published in article PMC6684372.
Residue numbers refer to the chain shown, from its start.

Assays:
Assay in all cases: EMSA
[1] = molecular target: UV-DDB (DDB1-DDB2 heterodimer) (Homo sapiens) (UniProt Q16531+Q92466); conditions: N at position 20 of strand 1 = tetrahydrofuran (abasic analog), opposite T
[2] = molecular target: UV-DDB (DDB1-DDB2 heterodimer) (Homo sapiens, UniProt Q16531;Q92466 1-1140;1-427)
OGG1 = OGG1 (Homo sapiens, UniProt O15527 1-345)
OGG1, sequence (O15527 whole entry): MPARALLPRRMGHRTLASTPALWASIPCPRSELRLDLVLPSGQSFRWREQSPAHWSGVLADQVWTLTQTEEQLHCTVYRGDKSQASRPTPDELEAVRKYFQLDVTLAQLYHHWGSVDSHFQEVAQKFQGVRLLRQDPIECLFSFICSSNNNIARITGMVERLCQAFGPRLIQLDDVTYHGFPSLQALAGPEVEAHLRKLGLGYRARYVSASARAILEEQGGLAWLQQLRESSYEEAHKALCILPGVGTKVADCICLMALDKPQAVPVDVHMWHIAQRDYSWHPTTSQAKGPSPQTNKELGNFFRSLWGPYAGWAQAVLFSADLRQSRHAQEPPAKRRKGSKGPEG

UV-DDB (DDB1-DDB2 heterodimer), sequence (Q16531 whole entry, chain 1 of 2): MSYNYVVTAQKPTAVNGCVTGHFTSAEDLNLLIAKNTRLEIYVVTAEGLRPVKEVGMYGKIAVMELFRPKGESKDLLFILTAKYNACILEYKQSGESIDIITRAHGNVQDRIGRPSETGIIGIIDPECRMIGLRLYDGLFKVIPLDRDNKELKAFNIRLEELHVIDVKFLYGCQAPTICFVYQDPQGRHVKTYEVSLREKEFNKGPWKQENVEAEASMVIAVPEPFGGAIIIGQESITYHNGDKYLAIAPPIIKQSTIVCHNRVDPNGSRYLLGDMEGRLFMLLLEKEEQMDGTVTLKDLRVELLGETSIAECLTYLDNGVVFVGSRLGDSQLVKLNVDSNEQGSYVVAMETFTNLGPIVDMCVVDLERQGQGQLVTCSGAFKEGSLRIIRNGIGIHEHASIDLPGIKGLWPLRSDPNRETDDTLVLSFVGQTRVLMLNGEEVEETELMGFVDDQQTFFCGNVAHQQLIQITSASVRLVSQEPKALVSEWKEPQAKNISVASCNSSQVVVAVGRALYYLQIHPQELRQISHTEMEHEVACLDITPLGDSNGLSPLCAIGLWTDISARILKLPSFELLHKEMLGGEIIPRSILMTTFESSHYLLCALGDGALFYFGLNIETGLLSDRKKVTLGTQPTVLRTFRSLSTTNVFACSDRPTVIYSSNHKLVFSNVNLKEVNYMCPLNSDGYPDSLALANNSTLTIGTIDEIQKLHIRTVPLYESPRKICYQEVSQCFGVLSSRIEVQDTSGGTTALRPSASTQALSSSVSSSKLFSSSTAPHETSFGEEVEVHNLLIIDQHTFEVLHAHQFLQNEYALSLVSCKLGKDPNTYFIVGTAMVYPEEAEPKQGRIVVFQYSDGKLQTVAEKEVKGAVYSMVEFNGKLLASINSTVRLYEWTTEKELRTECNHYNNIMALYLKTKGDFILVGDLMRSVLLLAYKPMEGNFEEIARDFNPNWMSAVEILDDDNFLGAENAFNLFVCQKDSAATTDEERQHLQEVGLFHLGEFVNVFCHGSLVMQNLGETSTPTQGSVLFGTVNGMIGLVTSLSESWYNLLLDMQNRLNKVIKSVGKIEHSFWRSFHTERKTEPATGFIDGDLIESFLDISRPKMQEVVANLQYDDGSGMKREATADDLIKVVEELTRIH
UV-DDB (DDB1-DDB2 heterodimer), sequence (Q92466 whole entry, chain 2 of 2): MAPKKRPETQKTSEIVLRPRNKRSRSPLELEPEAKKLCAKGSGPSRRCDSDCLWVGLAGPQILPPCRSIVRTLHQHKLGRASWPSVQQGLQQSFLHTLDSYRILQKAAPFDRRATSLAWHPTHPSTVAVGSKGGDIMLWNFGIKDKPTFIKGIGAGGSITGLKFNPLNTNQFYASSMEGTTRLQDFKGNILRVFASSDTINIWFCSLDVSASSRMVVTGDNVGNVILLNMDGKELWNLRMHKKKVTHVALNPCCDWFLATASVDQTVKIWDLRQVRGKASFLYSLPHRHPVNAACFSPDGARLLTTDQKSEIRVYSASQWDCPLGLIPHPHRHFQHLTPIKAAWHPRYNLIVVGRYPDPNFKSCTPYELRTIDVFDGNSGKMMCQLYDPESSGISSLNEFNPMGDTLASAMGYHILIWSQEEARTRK
UV-DDB (DDB1-DDB2 heterodimer) (Homo sapiens), sequence (Q16531 whole entry, chain 1 of 2): as the sequence (Q16531 whole entry, chain 1 of 2) above
UV-DDB (DDB1-DDB2 heterodimer) (Homo sapiens), sequence (Q92466 whole entry, chain 2 of 2): as the sequence (Q92466 whole entry, chain 2 of 2) above

**Q.** Which Kd [1] does the source give for “CCGAGTCATTCCTGCAGCGNGTCCATGGGAGTCAAAT / ATTTGACTCCCATGGACTCGCTGCAGGAATGACTCGG [THF37]” here?
**A.** 3.9 nM

B1: 8-oxoG37(G:C) (dsDNA)
DNA 1: CCGAGTCATTCCTGCAGCGAGTCCATGGGAGTCAAAT
DNA 2: ATTTGACTCCCATGGACTCGCTGCAGGAATGACTCGG
modifications: 8-oxoG at position 21 of strand 1 (printed as Z), opposite C
**Q.** B1 was tested. Which Kd [2] did it give?
**A.** 160 ± 12.4 nM

**Q.** And the binding signal (OGG1)?
**A.** ~3 fold lower affinity than THF37

B2: 8-oxoG37(G:A) (dsDNA)
DNA 1: B1 DNA 1
DNA 2: B1 DNA 2 with C17A
modifications: 8-oxoG at position 21 of strand 1 (printed as Z), opposite A
**Q.** Which Kd [2] does the source give for B2 here?
**A.** 164 ± 14.8 nM

B3: UD37 (dsDNA)
DNA 1: B1 DNA 1
DNA 2: B1 DNA 2
**Q.** B3 was tested. Which Kd [2] did it give?
**A.** 1110 ± 95.5 nM
